Measurements from patent US10012655B2, “Method for quantitating total HMGB1 protein in biological samples” (INSTITUT PASTEUR, priority 2008, dated 2018).

Assays:
HIV-2 = HIV-2 replication in infected iDCs, p24 ELISA in culture supernatant; assay type: cell-based; conditions: HIV-2-infected iDC, day 3 of infection
Protocol: FIGS. 6 (a), (b) and (c). Exogenous rh-HMGB1 triggers HIV-1 and HIV-2 replication in iDC. (a) HIV-1-infected iDC were cultured alone or in the presence of aNK cells for 3 days. Rh-HMGB1 (1 μg/ml) was added in some cultures. HIV replication was measured by p24 quantification in culture supernatant (b) HIV1-infected iDC were cultured alone or in the presence of aNK cells for 3 days. Blocking anti-HMGB1 antibodies (10 μg/ml) or glycyrrhizin (10 μg/ml) were added at culture initiation. HIV replication was measured by p24 quantification in culture supernatant. The mean±sd of three independent experiments is shown. Statistical comparisons were made with the non parametric Mann-Whitney test. * p<0.05; (c) HIV-2-infected iDC were cultured alone or in the presence of aNK cells for 3 days. Rh-HMGB1 (1 μg/ml) was added in some cultures. HIV replication was measured by p24 quantification in culture supernatant. […]
2—NK-DC cocultures: cells were harvested, washed three times with RPMI containing 10% FCS and, when indicated, aNK cells were added at a NK:DC ratio of 1:5. […] NK-DC cocultures lasted 3 to 7 days before quantification of viral production in culture supernatants.
3—Quantification of HIV-2 viral production: the concentration of HIV-2 particles in the supernatants was determined with the p24 ELISA kit (Ingen, Belgium).

iDCs = assay: Phenotypic maturation of iDCs cultured with rh-HMGB1 or LPS (flow cytometry); assay type: cell-based, human
Protocol: FIG. 1 (a)-(e). aNK cells induce the maturation of primary immature HIV-1-infected DCs. (a) iDCs, generated from purified CD14^+ monocytes in the presence of IL-4 and GM-CSF, were cocultured during 24 h with aNK cells at different ratios. DC survival was determined by flow cytometry with the 7-AAD assay. Surviving DCs were identified as 7AAD^−CD56^− cells. Data represent three independent experiments and values are means±sd. (b) aNK cells induce the maturation of iDCs. Flow cytometry analysis of iDCs, which were either infected with R5-HIV-1 BaL (1 ng/ml of p24) for 3 h or uninfected, were incubated with rNK cells or aNK cells at a ratio of 1:5. Co-staining with HLA-DR and CD86 specific antibodies allowed the identification of mature DCs (CD86^brightHLA-DR^bright) Data from a representative experiment out of three independent experiments are shown. (c) The conditions of infection used in this study were those of a productive infection of iDCs, as shown at day 3 by a significant p24 detection in culture supernatant of infected iDCs and intracellular detection by flow cytometry of p24 in DC targeted by CD40 expression. […] The proportion of mDCs induced by LPS (DC0) (78.1% CD86^brightHLA-DR^bright) is shown as a positive control. […]
FIG. 3 (a)-(e). aNK-dependent maturation of HIV-1-infected iDCs is mediated by HMGB1 and involves RAGE. […] The maturation status of DCs was determined by flow cytometry with CD86 and HLA-DR—specific antibodies. […] Cells were then stained with anti-CD86, -HLA-DR, -CD80, -CD83, DC-LAMP and -CD40 antibodies and analyzed by flow cytometry. (c) Influence of rh-HMGB1 on cytokine and chemokine production (determined by MAP) by DCs. iDCs (10^6 cells/ml) were incubated for 48 h in medium or in presence of rh-HMGB1 (1 or 10 μg/ml). […] (e) iDC, DC0, uninfected or HIV-1-infected iDC cocultured for 24 h with aNK cells, were incubated with rh-HMGB1 (1 μg/ml) and subsequently stained with anti-RAGE antibodies and analyzed by flow cytometry. […]

B1: rh-HMGB1: recombinant human HMGB1 protein (R&D Systems) (protein, UniProt P09429 1-215, looked up)
High mobility group protein B1: MGKGDPKKPRGKMSSYAFFVQTCREEHKKKHPDASVNFSEFSKKCSERWKTMSAKEKGKFEDMAKADKARYEREMKTYIPPKGETKKKFKDPNAPKRPPSAFFLFCSEYRPKIKGEHPGLSIGDVAKKLGEMWNNTAADDKQPYEKKAAKLKEKYEKDIAAYRAKGKPDAAKKGVVKAEKSKKKKEEEEDEEDEEDEEEEEDEEDEDEEEDDDDE
For B1, the “HIV-2 viral replication (p24 in supernatant)” value (HIV-2) was “slight increase in viral replication”, the “percentage of CD86bright HLA-DRbright DCs” value (iDCs; 10 μg/ml, 48 h of culture, medium alone 65%) was 71% and the “phenotypic maturation of iDC” value (iDCs; 24 h with 1 to 10 μg/ml, similar at 48 h) was “did not induce phenotypic maturation of iDC”. The “maturation status by CD80, CD83 and DC-lamp expression” value (iDCs; rh-HMGB1-treated DCs, 48 h, compared with DC0) was “not fully mature”.
